The record followed here is article PMC8508666.

Assay [1] concerns the target Sec61α, N-terminally tagged with LgBiT (Oplophorus gracilirostris | not stated). Description: split reporter (BiFC, NanoBiT); bimolecular luminescence complementation in living HeLa cells, 96-well plate, 24 h after co-transfection of one LgBiT and one SmBiT fusion plasmid (50 ng each); furimazine added, signal 4 min later; RLU normalised to the LgBiT fusion plus Halo-CS set to 1; forskolin (15 µM) lowered the rPKA-cPKA signal; digitonin plus trypsin eliminated the signals.

The target in assay [2] is Sec61β, C-terminally tagged with LgBiT (not stated | Oplophorus gracilirostris). Described as above.
In assay [3] the target is regulatory subunit of protein kinase A, C-terminally tagged with LgBiT (not stated | Oplophorus gracilirostris). The assay is described as above.
The target is the same in assay [4]. Description: split reporter (BiFC, NanoBiT); synthetic peptide complementation: HeLa cells expressing a LgBiT fusion, furimazine, then 0.002% digitonin, then synthetic peptide (scrambled, actin, SmBiT 1-100 µM; HaBiT up to 100 nM); signal 4 min after the peptide; RLU normalised to the scrambled peptide set to 1.
The target in assay [5] is TRAPβ, C-terminally tagged with LgBiT (not stated | Oplophorus gracilirostris). The description is as above.
The target of assay [6] is Sec61α, C-terminally tagged with LgBiT (not stated | Oplophorus gracilirostris). The assay is described as above.
Assay [7] addresses Sec61β, C-terminally tagged with LgBiT (not stated | Oplophorus gracilirostris). The description is as above.
Assay [8] deals with TRAPα, C-terminally tagged with LgBiT (not stated | Oplophorus gracilirostris). Described as above.
Assay [9] deals with Sec61α, N-terminally tagged with LgBiT (Oplophorus gracilirostris | not stated). The assay is described as above.
Assay [10] concerns the target TRAPβ, C-terminally tagged with LgBiT (not stated | Oplophorus gracilirostris). Described as above. The source holds these as a separate data set.
Assay [11] deals with Sec61α, C-terminally tagged with LgBiT (not stated | Oplophorus gracilirostris). Described as above. This is another data set of the same source.
The target in assay [12] is Sec61β, C-terminally tagged with LgBiT (not stated | Oplophorus gracilirostris). Described as above. This is another data set of the same source.
Assay [13] deals with TRAPα, C-terminally tagged with LgBiT (not stated | Oplophorus gracilirostris). The description is as above. The source holds these as a separate data set.
The target in assay [14] is Sec61α, N-terminally tagged with LgBiT (Oplophorus gracilirostris | not stated). The description is as above. The source holds these as a separate data set.
Assay [15] has as its target TRAPα, C-terminally tagged with LgBiT (not stated | Oplophorus gracilirostris). As to the kind of experiment: split reporter (BiFC, NanoBiT); bimolecular luminescence complementation in living HeLa cells, 96-well plate, 24 h after co-transfection of one LgBiT and one SmBiT fusion plasmid (50 ng each); furimazine added, signal 4 min later; RLU normalised to the LgBiT fusion plus Halo-CS set to 1; forskolin (15 µM) lowered the rPKA-cPKA signal; digitonin plus trypsin eliminated the signals.

Like-named read-outs stand apart in the source and are kept apart here. A value given as a limit tells only on which side of the number the result lay.

Regarding “Sec61β, N-terminally tagged with SmBiT (from UniProt P60468 1-96) (natural protein)”, the relative luminescence (RLU, Halo-CS control pair = 1) in [1] was determined as 141 RLU.

Take “Sec63, N-terminally tagged with SmBiT (from UniProt Q9UGP8 1-760) (natural protein)”: the relative luminescence (RLU, Halo-CS control pair = 1) in [2] was 202 RLU.

As for “catalytic subunit of protein kinase A, C-terminally tagged with SmBiT (from UniProt P17612 1-351) (enzyme)”, the relative luminescence (RLU, Halo-CS control pair = 1) in assay [3] turned out to be 613 RLU.

Consider “synthetic HaBiT peptide (high affinity variant of SmBiT)”, for which the fold activity over the SmBiT peptide in [4] turned out to be 10000 fold. In addition, the luminescence relative to the scrambled peptide in [5] was above 50 fold; in assay [6], 15 RLU; in [7], above 50 fold; in assay [8] it was above 50 fold; in assay [9], above 50 fold.

B1: TRAPα, C-terminally tagged with SmBiT (natural protein)
chain: VLFRGGPRGLLAVAQDLTEDEETVEDSIIEDEDDEAEVEEDEPTDLVEDKEEEDVSGEPEASPSADTTILFVKGEDFPANNIVKFLVGFTNKGTEDFIVESLDASFRYPQDYQFYIQNFTALPLNTVVPPQRQATFEYSFIPAEPMGGRPFGLVINLNYKDLNGNVFQDAVFNQTVTVIEREDGLDGETIFMYMFLAGLGLLVIVGLHQLLESRKRKRPIQKVEMGTSSQNDVDMSWIPQETLNQINKASPRRLPRKRAQKRSVGSDE
Regarding B1, in assay [1], the relative luminescence (RLU, Halo-CS control pair = 1) came to 62 RLU.

B2: synthetic SmBiT peptide (11 + 1 aa) (peptide)
peptide: CVTGYRLFEEIL
Turning to B2, the luminescence relative to the scrambled peptide in [10] was above 10 fold; in assay [11], 2 RLU; in assay [12] it was above 10 fold; in assay [13], above 10 fold; in [14] it was above 10 fold.

B3: TRAPβ, C-terminally tagged with SmBiT (natural protein)
chain: EEGARLLASKSLLNRYAVEGRDLTLQYNIYNVGSSAALDVELSDDSFPPEDFGIVSGMLNVKWDRIAPASNVSHTVVLRPLKAGYFNFTSATITYLAQEDGPVVIGSTSAPGQGGILAQREFDRRFSPHFLDWAAFGVMTLPSIGIPLLLWYSSKRKYDTPKTKKN
Consider B3, for which the relative luminescence (RLU, Halo-CS control pair = 1) in assay [15] turned out to be 91 RLU.
